Patent US20180016327A1 (Chugai, published 2018)
Changes are numbered by the printed parent chain.

B1: CFP0018 18L 96M (antibody, V domains shown)
VH: QVQLVQSGAEVKKPGSSVKVSCKASGGTFSSYAISWVRQAPGQGLEWMGGIIPIFGTANYAQKFQGRVTITADESTSTAYMELSSLRSEDTAVYYCARQLYGYYELDIWGQGTLVTVSS
VL: DIQMTQSPSSLSASVGDRVTITCRASQSISDDLAWYQQKPGKAPKLLIYEASSLQSGVPSRFSGSGSGTDFTLTISSLQPEDFATYYCQQYNSYPMTFGQGTKVEIK
B2: CFP0015 (antibody, V domains shown)
VH: QVQLLESGGGLVQPGGSLRLSCAASGFTFSSYAMSWVRQAPGKGLEWVSAISGSGGSTYYADSVKGRFTISRDNSKNTLYLQMNSLRAEDTAVYYCARGDQIWYDQWYYFDMWGQGTLVTVSS
VL: B1 VL with S30E, S53N, N92D, Y94S, M96L
notes: IgG format
B3: CFP0015 15L 30H (antibody, V domains shown)
VH: B2 VH
VL: B1 VL with S30H, S53N, N92D, Y94S, M96L
B4: CFP0015 15L 30A (antibody, V domains shown)
VH: B2 VH
VL: B1 VL with S30A, S53N, N92D, Y94S, M96L
B5: CFP0018 18L 96P (antibody, V domains shown)
VH: B1 VH
VL: B1 VL with M96P
B6: CFP0015 15L 30D (antibody, V domains shown)
VH: B2 VH
VL: B1 VL with S30D, S53N, N92D, Y94S, M96L
B7: CFP0015 15L 30N (antibody, V domains shown)
VH: B2 VH
VL: B1 VL with S30N, S53N, N92D, Y94S, M96L
B8: CFP0015 15L 30Q (antibody, V domains shown)
VH: B2 VH
VL: B1 VL with S30Q, S53N, N92D, Y94S, M96L
B9: CFP0015 15L 30P (antibody, V domains shown)
VH: B2 VH
VL: B1 VL with S30P, S53N, N92D, Y94S, M96L
B10: CFP0018 18L 96W (antibody, V domains shown)
VH: B1 VH
VL: B1 VL with M96W
B11: CFP0018 18L 96Y (antibody, V domains shown)
VH: B1 VH
VL: B1 VL with M96Y
B12: CFP0015 15L 31A (antibody, V domains shown)
VH: B2 VH
VL: B1 VL with S30E, D31A, S53N, N92D, Y94S, M96L
B13: CFP0015 15L 30S (antibody, V domains shown)
VH: B2 VH
VL: B1 VL with S53N, N92D, Y94S, M96L
B14: CFP0015 15L 30F (antibody, V domains shown)
VH: B2 VH
VL: B1 VL with S30F, S53N, N92D, Y94S, M96L
B15: CFP0018 18L 96V (antibody, V domains shown)
VH: B1 VH
VL: B1 VL with M96V
B16: CFP0015 15L 30T (antibody, V domains shown)
VH: B2 VH
VL: B1 VL with S30T, S53N, N92D, Y94S, M96L
B17: CFP0015 15L 30Y (antibody, V domains shown)
VH: B2 VH
VL: B1 VL with S30Y, S53N, N92D, Y94S, M96L

Biological target: T1, human C5 (human, UniProt P01031 19-673; P01031 678-1676, Beta and alpha chains are disulfide-linked and the protein is glycosylated.)
T1 construct: Either in-house recombinant C5 or plasma derived C5 (CALBIOCHEM) was used; also called recombinant human C5; plasma derived human C5
Assay: Biacore, captured antibody, pH 7.4, 37 C;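 also: biacore binding response of anti-C5 antibody light chain variants captured on chip with human C5 injected, ACES running buffer containing 1.2 mM CaCl₂, parent light chain antibody set to 100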

Binder | % binding (parent = 100) [%]
B1 | 46.2
B2 | 100
B3 | 18.4
B4 | 25.7
B5 | 18
B6 | 59.9
B7 | 21.4
B8 | 42.6
B9 | 60.9
B10 | 16.9
B11 | 23
B12 | 30
B13 | 23.1
B14 | 39.7
B15 | 70.3
B16 | 25.1
B17 | 51.3
